# FireProtDB (doi:10.1002/pro.381)
# Conditions: Kitasatospora aureofaciens, pH 7, CD, MOPS 30 mM, whole UniProt chain shown; for denaturant m value / denaturant midpoint (higher = more stable) / unfolding free energy: 25 °C
protein,measurement,setting,value
"Guanyl-specific ribonuclease Sa wild type, P05798 (protein) DVSGTVCLSALPPEATDTLNLIASDGPFPYSQDGVVFQNRESVLPTQSYGYYHEYTVITPGARTRGTRRIITGEATQEDYYTGDHYATFSLIDQTC",denaturant m value,GdnHCl,2.43 kcal/mol/M
same,denaturant midpoint (higher = more stable),GdnHCl,2.99 M
same,unfolding free energy,GdnHCl,7.3 kcal/mol
same,denaturant m value,Urea,0.96 kcal/mol/M
same,denaturant midpoint (higher = more stable),Urea,6.06 M
same,unfolding free energy,Urea,5.8 kcal/mol
same,Tm,Thermal,49.3 °C
same,heat capacity change of unfolding,Thermal,1.52 kcal/mol/K
same,unfolding enthalpy (van 't Hoff),Thermal,93 kcal/mol
